Test results from patent publication US20100260668A1 (published 2010).
Values joined by “and” are separate entries in the source; they are usually repeats but may differ in a detail not shown here. Equal entries are not always repeated.

Tests used:
[1] = biological target: T1, recombinant His-RON partial ECD (R&D Systems #1947-MS) (UniProt Q04912 25-957, limits assumed); test: competition ELISA: DVD-Ig pre-incubated with 10 nM His-RON partial ECD, then on captured MSP1 (competitor MSP1)
T1 construct: extracellular domain; also called MSP Receptor ECD-His tag; not shown: His tag

PlGF (Placental GF) = biological target: T2, PlGF (Placental GF) (UniProt P49763-2 21-149, limits assumed); test: Direct Bind ELISA, antigen on plate
T2 construct: Bought reagent
T2 sequence (looked up): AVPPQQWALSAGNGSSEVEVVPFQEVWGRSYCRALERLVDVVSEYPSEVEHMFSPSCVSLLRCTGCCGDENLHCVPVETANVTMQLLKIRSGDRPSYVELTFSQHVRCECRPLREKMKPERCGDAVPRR

biotinylated VEGF = biotinylated VEGF (UniProt P15692-4 27-191, limits assumed, biotinylated); test: VEGF capture ELISA, antibody captured by anti-human Fc, biotinylated VEGF
Sequence of biotinylated VEGF (P15692 other isoform, or with tags, fused parts or gaps limits assumed): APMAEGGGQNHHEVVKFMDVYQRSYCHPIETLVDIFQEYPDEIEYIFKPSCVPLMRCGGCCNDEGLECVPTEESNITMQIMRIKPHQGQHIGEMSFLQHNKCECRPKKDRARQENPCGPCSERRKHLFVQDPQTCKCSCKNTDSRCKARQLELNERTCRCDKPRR

[2] = biological target: T3, human DLL4 on 293G-human DLL4 cells (human, UniProt Q9NR61 27-685); test: FACS: inhibition of Notch1 binding to 293G-human DLL4 cells (competitor Notch1)
T3 construct: whole, on cells; no method paragraph describes this FACS assay

[3] = biological target: T4, human DLL4 extracellular domain (human, UniProt Q9NR61 27-529, biotin label in the Notch-1 competition ELISA (sites not given)); test: competition ELISA: biotin-labelled human DLL4 ECD pre-mixed with antibody, then on coated human Notch-1 (competitor Notch-1)
T4 construct: extracellular domain; also called biotin labeled human DLL4 extracellular domain

[4] = biological target: T4, human DLL4 extracellular domain; test: cell-based or functional assay
[5] = biological target: T4, human DLL4 extracellular domain; test: competition ELISA: 14 nM biotin-labelled human DLL4 ECD pre-mixed with antibody, then on coated human Notch-1 (competitor Notch-1)
IGF2 (IGF-2) [6] = biological target: T5, IGF2 (IGF-2) (UniProt P01344 25-91); test: Direct Bind ELISA, antigen on plate; C-terminal VD; second value of IGF1/IGF2 cell
T5 construct: Bought reagent

IGF1 (IGF-I) [7] = biological target: T6, IGF1 (IGF-I) (UniProt P05019 49-118); test: Direct Bind ELISA, antigen on plate; C-terminal VD; first value of IGF1/IGF2 cell
T6 construct: Bought reagent

IGF1 (IGF-I) [8] = biological target: T6, IGF1 (IGF-I); test: Direct Bind ELISA, antigen on plate; N-terminal VD; first value of IGF1/IGF2 cell
IGF2 (IGF-2) [9] = biological target: T5, IGF2 (IGF-2); test: Direct Bind ELISA, antigen on plate; N-terminal VD; second value of IGF1/IGF2 cell
DLL4 (DLL4 ECD/His tag) = biological target: T7, DLL4 (DLL4 ECD/His tag) (UniProt Q9NR61 27-529, limits assumed); test: Direct Bind ELISA, antigen on plate
T7 construct: extracellular domain; Bought reagent

[10] = biological target: T8, NRP1 (Neuropilin-1 Npn-1-His tag) (UniProt O14786-2 22-644); test: Direct Bind ELISA, antigen on plate
T8 construct: Bought reagent

[11] = biological target: T8, NRP1 (Neuropilin-1 Npn-1-His tag); test: Direct Bind ELISA, antigen on plate; N-terminal VD
[12] = biological target: T9, CD40/FC (CD40 ECD/FC chimera-His tag) (UniProt P25942 21-193); test: Direct Bind ELISA, C-terminal variable domain
T9 construct: extracellular domain; bought reagent; not shown: IgG FC domain and His tag of the bought chimera
T9 sequence (P25942 21-193, change not shown): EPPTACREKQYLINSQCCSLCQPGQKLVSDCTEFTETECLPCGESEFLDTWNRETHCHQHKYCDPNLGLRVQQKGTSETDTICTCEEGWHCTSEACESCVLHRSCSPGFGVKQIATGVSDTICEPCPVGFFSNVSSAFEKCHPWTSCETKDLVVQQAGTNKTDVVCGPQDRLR

[13] = biological target: T8, NRP1 (Neuropilin-1 Npn-1-His tag); test: Direct Bind ELISA, antigen on plate; C-terminal VD

B1: DVD047 (VEGF (seq. 1) N-terminal / RON (seq. 1) C-terminal DVD-Ig) (bispecific antibody, human IgG1, kappa)
heavy: not shown
light: DIQMTQSPSSLSASVGDRVTITCSASQDISNYLNWYQQKPGKAPKVLIYFTSSLHSGVPSRFSGSGSGTDFTLTISSLQPEDFATYYCQQYSTVPWTFGQGTKVEIKRTVAAPDVVMTQSPLSLPVTPGEPASISCRSSQSLLHSNGFNYVDWYLQKPGQSPHLLIYFGSYRASGVPDRFSGSGSGTDFTLKISRVEAEDVGVYYCMQALQTPPWTFGQGTKVEIRRTVAAPSVFIFPPSDEQLKSGTASVVCLLNNFYPREAKVQWKVDNALQSGNSQESVTEQDSKDSTYSLSSTLTLSKADYEKHKVYACEVTHQGLSSPVTKSFNRGEC
notes: also called DVD047H/DVD047L
IC50 [1]: 21.3 nM

B2: AB047 (anti-PLGF (seq. 1) parent antibody) (antibody, IgG1, V domains shown)
VH: QVQLQQSGAELVKPGASVKISCKASGYTFTDYYINWVKLAPGQGLEWIGWIYPGSGNTKYNEKFKGKATLTIDTSSSTAYMQLSSLTSEDTAVYFCVRDSPFFDYWGQGTLLTVSS
VL: DIVLTQSPDSLAVSLGERVTMNCKSSQSLLNSGMRKSFLAWYQQKPGQSPKLLIYWASTRESGVPDRFTGSGSGTDFTLTISSVQAEDVAVYYCKQSYHLFTFGSGTKLEIKR
notes: HC vector V1 (wild-type hIgG1 constant), LC vector V2 (kappa constant); also called AB047VH; AB047VL
EC50 (PlGF (Placental GF)): 0.2 nM

B3: AB071 (antibody, human IgG1, kappa, L234A L235A, V domains shown)
VH: EVQLVESGGGLVQPGGSLRLSCAASGFTINASWIHWVRQAPGKGLEWVGAIYPYSGYTNYADSVKGRFTISADTSKNTAYLQMNSLRAEDTAVYYCARWGHSTSPWAMDYWGQGTLVTVSS
VL: DIQMTQSPSSLSASVGDRVTITCRASQVIRRSLAWYQQKPGKAPKLLIYAASNLASGVPSRFSGSGSGTDFTLTISSLQPEDFATYYCQQSNTSPLTFGQGTKVEIKR
EC50 (biotinylated VEGF): 0.38 nM

B4: AB015 (anti-DLL-4 (seq. 1) parent antibody) (antibody, human IgG1, kappa)
heavy: not shown
light: DIQMTQSPSSLSASVGDRVTITCRASQDVSTAVAWYQQKPGKAPKLLIYSASFLYSGVPSRFSGSGSGTDFTLTISSLQPEDFATTYYCQQSYTGTVTFGQGTKVEIKRTVAAPSVFIFPPSDEQLKSGTASVVCLLNNFYPREAKVQWKVDNALQSGNSQESVTEQDSKDSTYSLSSTLTLSKADYEKHKVYACEVTHQGLSSPVTKSFNRGEC
notes: also called AB015VH/AB015VL
IC50 [2]: 2.3 nM
IC50 [3]: 0.37 nM and 0.4 nM
Ref. Ab Inhibition of sFlt1 (IC50, nM) [4]: 0.34 nM
IC50 [5]: 2.47 nM and 2.69 nM and 2.53 nM and 2.74 nM

B5: DVD041 (VEGF (seq. 1) and IGF1,2 DVD-Ig) (bispecific antibody, IgG1)
VH: EVQLVESGGGLVQPGGSLRLSCAASGYTFTNYGMNWVRQAPGKGLEWVGWINTYTGEPTYAADFKRRFTFSLDTSKSTAYLQMNSLRAEDTAVYYCAKYPHYYGSSHWYFDVWGQGTLVTVSSASTKGPQVQLVQSGAEVKKPGASVKVSCKASGYTFTSYDINWVRQATGQGLEWMGWMNPNSGNTGYAQKFQGRVTMTRNTSISTAYMELSSLRSEDTAVYYCARDPYYYYYGMDVWGQGTTVTVSS
VL: DIQMTQSPSSLSASVGDRVTITCSASQDISNYLNWYQQKPGKAPKVLIYFTSSLHSGVPSRFSGSGSGTDFTLTISSLQPEDFATYYCQQYSTVPWTFGQGTKVEIKRTVAAPQSVLTQPPSVSAAPGQKVTISCSGSSSNIENNHVSWYQQLPGTAPKLLIYDNNKRPSGIPDRFSGSKSGTSATLGITGLQTGDEADYYCETWDTSLSAGRVFGGGTKLTVLG
notes: HC vector V1 (wild-type hIgG1 constant), LC vector V5 (kappa signal peptide, lambda constant); also called DVD041H; DVD041L
EC50 (IGF2 (IGF-2) [6]): 7340 nM
EC50 (IGF1 (IGF-I) [7]): 381 nM

B6: DVD042 (IGF1,2 and VEGF (seq. 1) DVD-Ig) (bispecific antibody, IgG1)
VH: QVQLVQSGAEVKKPGASVKVSCKASGYTFTSYDINWVRQATGQGLEWMGWMNPNSGNTGYAQKFQGRVTMTRNTSISTAYMELSSLRSEDTAVYYCARDPYYYYYGMDVWGQGTTVTVSSASTKGPEVQLVESGGGLVQPGGSLRLSCAASGYTFTNYGMNWVRQAPGKGLEWVGWINTYTGEPTYAADFKRRFTFSLDTSKSTAYLQMNSLRAEDTAVYYCAKYPHYYGSSHWYFDVWGQGTLVTVSS
VL: QSVLTQPPSVSAAPGQKVTISCSGSSSNIENNHVSWYQQLPGTAPKLLIYDNNKRPSGIPDRFSGSKSGTSATLGITGLQTGDEADYYCETWDTSLSAGRVFGGGTKLTVLGQPKAAPDIQMTQSPSSLSASVGDRVTITCSASQDISNYLNWYQQKPGKAPKVLIYFTSSLHSGVPSRFSGSGSGTDFTLTISSLQPEDFATYYCQQYSTVPWTFGQGTKVEIKR
notes: HC vector V1 (wild-type hIgG1 constant), LC vector V4 (lambda signal peptide, kappa constant); also called DVD042H; DVD042L
EC50 (IGF1 (IGF-I) [8]): 2.54 nM
EC50 (IGF2 (IGF-2) [9]): 17.6 nM

B7: AB015 (anti-DLL-4 (seq. 1) parent antibody) (antibody, IgG1, V domains shown)
VH: EVQLVESGGGLVQPGGSLRLSCAASGFTFTDNWISWVRQAPGKGLEWVGYISPNSGFTYYADSVKGRFTISADTSKNTAYLQMNSLRAEDTAVYYCARDNFGGYFDYWGQGTLVTVSS
VL: DIQMTQSPSSLSASVGDRVTITCRASQDVSTAVAWYQQKPGKAPKLLIYSASFLYSGVPSRFSGSGSGTDFTLTISSLQPEDFATTYYCQQSYTGTVTFGQGTKVEIKR
notes: HC vector V1 (wild-type hIgG1 constant), LC vector V2 (kappa constant); also called AB015VH; AB015VL
EC50 (DLL4 (DLL4 ECD/His tag)): 0.31 nM

B8: AB016 (anti-NRP1 (seq. 1) parent antibody) (antibody, IgG1, V domains shown)
VH: EVQLVESGGGLVQPGGSLRLSCAASGFSFSSEPISWVRQAPGKGLEWVSSITGKNGYTYYADSVKGRFTISADTSKNTAYLQMNSLRAEDTAVYYCARWGKKVYGMDVWGQGTLVTVSS
VL: DIQMTQSPSSLSASVGDRVTITCRASQSISSYLAWYQQKPGKAPKLLIYGASSRASGVPSRFSGSGSGTDFTLTISSLQPEDFATYYCQQYMSVPITFGQGTKVEIKR
notes: HC vector V1 (wild-type hIgG1 constant), LC vector V2 (kappa constant); also called AB016VH; AB016VL
EC50 [10]: 0.58 nM

B9: DVD050 (NRP1 (seq. 1) and VEGF (seq. 1) DVD-Ig) (bispecific antibody, IgG1)
VH: EVQLVESGGGLVQPGGSLRLSCAASGFSFSSEPISWVRQAPGKGLEWVSSITGKNGYTYYADSVKGRFTISADTSKNTAYLQMNSLRAEDTAVYYCARWGKKVYGMDVWGQGTLVTVSSASTKGPEVQLVESGGGLVQPGGSLRLSCAASGYTFTNYGMNWVRQAPGKGLEWVGWINTYTGEPTYAADFKRRFTFSLDTSKSTAYLQMNSLRAEDTAVYYCAKYPHYYGSSHWYFDVWGQGTLVTVSS
VL: DIQMTQSPSSLSASVGDRVTITCRASQSISSYLAWYQQKPGKAPKLLIYGASSRASGVPSRFSGSGSGTDFTLTISSLQPEDFATYYCQQYMSVPITFGQGTKVEIKRTVAAPDIQMTQSPSSLSASVGDRVTITCSASQDISNYLNWYQQKPGKAPKVLIYFTSSLHSGVPSRFSGSGSGTDFTLTISSLQPEDFATYYCQQYSTVPWTFGQGTKVEIKR
notes: HC vector V1 (wild-type hIgG1 constant), LC vector V2 (kappa constant); also called DVD050H; DVD050L
EC50 [11]: 0.46 nM

B10: DVD009 DVD-Ig (bispecific antibody, human IgG1, kappa)
heavy: not shown
light: QIVLSQSPAILSPSPGEKVTMTCRASSSVSYIHWFQQKPGSSPKPWIYATSNLASGVPVRFSGSGSGTSYSLTISRVEAEDAATYYCQQWTSNPPTFGGGTKLEIKRTVAAPDIVMTQSPLSLTVTPGEPASISCRSSQSLLYSNGYNYLDWYLQKPGQSPQVLISLGSNRASGVPDRFSGSGSGTDFTLKISRVEAEDVGVYYCMQARQTPFTFGPGTKVDIRRTVAAPSVFIFPPSDEQLKSGTASVVCLLNNFYPREAKVQWKVDNALQSGNSQESVTEQDSKDSTYSLSSTLTLSKADYEKHKVYACEVTHQGLSSPVTKSFNRGEC
notes: outer AB001 (CD-20), inner AB009 (CD-40); HC/LC linkers short/short; also called DVD009H; DVD009L
binding result [12]: binds

B11: DVD049 (VEGF (seq. 1) and NRP1 (seq. 1) DVD-Ig) (bispecific antibody, IgG1)
VH: EVQLVESGGGLVQPGGSLRLSCAASGYTFTNYGMNWVRQAPGKGLEWVGWINTYTGEPTYAADFKRRFTFSLDTSKSTAYLQMNSLRAEDTAVYYCAKYPHYYGSSHWYFDVWGQGTLVTVSSASTKGPEVQLVESGGGLVQPGGSLRLSCAASGFSFSSEPISWVRQAPGKGLEWVSSITGKNGYTYYADSVKGRFTISADTSKNTAYLQMNSLRAEDTAVYYCARWGKKVYGMDVWGQGTLVTVSS
VL: DIQMTQSPSSLSASVGDRVTITCSASQDISNYLNWYQQKPGKAPKVLIYFTSSLHSGVPSRFSGSGSGTDFTLTISSLQPEDFATYYCQQYSTVPWTFGQGTKVEIKRTVAAPDIQMTQSPSSLSASVGDRVTITCRASQSISSYLAWYQQKPGKAPKLLIYGASSRASGVPSRFSGSGSGTDFTLTISSLQPEDFATYYCQQYMSVPITFGQGTKVEIKR
notes: HC vector V1 (wild-type hIgG1 constant), LC vector V2 (kappa constant); also called DVD049H; DVD049L
EC50 [13]: 0.5 nM
